Data reported in patent US20040005550A1, “Methods and compositions useful for targeting activated vitronectin receptor alphavbeta3” (The Scripps Research Institute, priority 1998, published 2004).

Tests used:
[1] = molecular target: human αvβ3 integrin on cells (human) (UniProt P06756); assay: flow cytometry, AP5-treated αvβ3-CHO cells; 1 µM Integrilin against aPB
[2] = molecular target: human αvβ3 integrin on cells (human) (UniProt P06756); assay: flow cytometry, AP5-treated αvβ3-CHO cells; 1 µM Integrilin against WOW-1 Fab
[3] = molecular target: purified αIIbβ3 from human platelets (human) (UniProt P08514); assay: ELISA on purified integrin, 50 µM MnCl2; half-maximal binding
[4] = molecular target: purified αvβ3 receptors from human placenta (human) (UniProt P06756); assay: as above
[5] = molecular target: human αvβ3 integrin on cells (human) (UniProt P06756); assay: flow cytometry binding isotherm, JY cells stimulated with phorbol myristate acetate, one-site fit
[6] = molecular target: human αvβ3 integrin on cells (human) (UniProt P06756); assay: flow cytometry, JY cells, 100 nM phorbol myristate acetate for 15 min
[7] = molecular target: human αvβ3 integrin on cells (human) (UniProt P06756); assay: flow cytometry binding isotherm, αvβ3-CHO cells, no treatment
[8] = molecular target: human αvβ3 integrin on cells (human) (UniProt P06756); assay: flow cytometry binding isotherm, αvβ3-CHO cells, activating antibody AP5
[9] = molecular target: human αvβ3 integrin on cells (human) (UniProt P06756); assay: flow cytometry binding isotherm, unstimulated JY cells, one-site fit
[10] = molecular target: human αvβ3 integrin on cells (human) (UniProt P06756); assay: flow cytometry binding isotherms, JY cells
[11] = molecular target: human αvβ3 integrin on cells (human) (UniProt P06756); assay: unstimulated B-lymphoblastoid cells; summary in the description, differs from the 2,600 nM of Example 8

Sequence of human αvβ3 integrin on cells (human) (P06756 31-1048, chain 1 of 2): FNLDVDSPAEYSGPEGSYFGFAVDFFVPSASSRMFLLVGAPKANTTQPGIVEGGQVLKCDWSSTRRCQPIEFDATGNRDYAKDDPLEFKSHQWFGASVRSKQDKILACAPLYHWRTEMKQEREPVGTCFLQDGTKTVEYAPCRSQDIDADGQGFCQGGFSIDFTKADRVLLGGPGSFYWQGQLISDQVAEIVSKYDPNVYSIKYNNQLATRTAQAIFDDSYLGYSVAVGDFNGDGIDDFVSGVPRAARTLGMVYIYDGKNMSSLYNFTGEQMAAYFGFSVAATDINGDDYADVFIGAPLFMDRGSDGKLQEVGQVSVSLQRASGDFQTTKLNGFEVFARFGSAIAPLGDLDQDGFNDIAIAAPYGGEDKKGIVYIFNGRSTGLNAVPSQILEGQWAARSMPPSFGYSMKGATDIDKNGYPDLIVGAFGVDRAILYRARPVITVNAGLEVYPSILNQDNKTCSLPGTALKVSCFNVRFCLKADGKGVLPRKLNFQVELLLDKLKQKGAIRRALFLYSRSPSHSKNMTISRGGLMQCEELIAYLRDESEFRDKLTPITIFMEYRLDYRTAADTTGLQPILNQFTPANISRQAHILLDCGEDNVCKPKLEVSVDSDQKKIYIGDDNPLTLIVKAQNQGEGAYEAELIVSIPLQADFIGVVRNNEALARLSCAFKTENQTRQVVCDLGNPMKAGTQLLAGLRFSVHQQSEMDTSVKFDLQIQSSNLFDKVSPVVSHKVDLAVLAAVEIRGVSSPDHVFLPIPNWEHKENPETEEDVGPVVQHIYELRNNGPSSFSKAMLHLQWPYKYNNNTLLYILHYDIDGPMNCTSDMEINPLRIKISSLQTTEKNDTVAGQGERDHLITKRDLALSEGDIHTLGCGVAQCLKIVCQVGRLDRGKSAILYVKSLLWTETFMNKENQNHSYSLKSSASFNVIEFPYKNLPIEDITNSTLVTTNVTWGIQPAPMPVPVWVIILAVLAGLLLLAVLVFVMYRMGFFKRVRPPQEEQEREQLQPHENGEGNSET
Sequence of human αvβ3 integrin on cells (human) (P05106 27-788, chain 2 of 2, further chain): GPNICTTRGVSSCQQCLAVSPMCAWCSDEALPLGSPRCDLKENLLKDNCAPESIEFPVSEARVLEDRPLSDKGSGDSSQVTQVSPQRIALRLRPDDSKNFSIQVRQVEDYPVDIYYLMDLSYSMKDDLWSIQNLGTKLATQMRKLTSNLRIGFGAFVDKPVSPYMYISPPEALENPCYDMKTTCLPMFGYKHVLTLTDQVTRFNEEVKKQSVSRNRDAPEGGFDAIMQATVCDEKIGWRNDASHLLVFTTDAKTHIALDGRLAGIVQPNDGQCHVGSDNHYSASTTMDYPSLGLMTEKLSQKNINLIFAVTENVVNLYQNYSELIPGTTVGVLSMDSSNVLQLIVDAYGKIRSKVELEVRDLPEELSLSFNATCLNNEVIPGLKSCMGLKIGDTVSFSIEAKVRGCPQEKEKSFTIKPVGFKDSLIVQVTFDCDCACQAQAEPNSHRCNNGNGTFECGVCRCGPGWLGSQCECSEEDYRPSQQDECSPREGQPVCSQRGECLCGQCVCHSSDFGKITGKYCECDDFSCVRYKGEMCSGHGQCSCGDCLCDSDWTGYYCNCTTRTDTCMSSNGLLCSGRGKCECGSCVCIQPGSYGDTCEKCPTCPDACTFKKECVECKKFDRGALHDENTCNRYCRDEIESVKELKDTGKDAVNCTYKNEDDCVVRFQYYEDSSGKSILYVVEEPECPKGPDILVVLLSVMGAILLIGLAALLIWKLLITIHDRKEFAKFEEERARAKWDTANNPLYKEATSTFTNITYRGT
Sequence of purified αvβ3 receptors from human placenta (human) (P06756 31-1048 limits assumed, chain 1 of 2): as the sequence (P06756 31-1048, chain 1 of 2) above
Sequence of purified αvβ3 receptors from human placenta (human) (P05106 27-788 limits assumed, chain 2 of 2, further chain): as the sequence (P05106 27-788, chain 2 of 2, further chain) above

Integrilin (peptide) gave a percent inhibition of aPB binding [1] of less than 20% and a percent inhibition of WOW-1 Fab binding [2] of less than 20%.

In the case of PAC1 Fab, the EC50 [3] is reported as 50 nM.

WOW-1 Fab showed an EC50 [4] of 40 nM, a Kd [5] of 80 nM and a maximal binding [5] of 23.5 units. For the same substance, the fold increase in specific binding with phorbol myristate acetate against no agonist [6] was 2.4 fold, the Bmax [7] was 62 units and the Kd [7] was 514 nM. For the same substance, the Bmax [8] was 65 units, the Kd [8] was 119 nM and the Kd [9] was 2600 nM. The maximal binding (arbitrary fluorescence units) [9] was 24.8, the fold increase in binding affinity with phorbol myristate acetate against unstimulated cells [10] was greater than 30 fold and the Kd [11] was 2400 nM.
